Reference: patent US20210388087A1 (Chugai, published 2021)
Changes are numbered by the printed parent chain. Blank lines part the entries; values can stand above or below the binder they belong to.

Biological target: T1, CD3 epsilon homodimer protein (UniProt P07766 23-126)
T1 construct: also called CD3 (CD3 epsilon)
Assay: SPR, antibody over immobilised CD3e homodimer;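 further: SPR at 25 °C with CD3 epsilon homodimer amine-coupled to a CM4 sensor chip and antibody flowed over as analyte in HBS-EP+ running buffer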
Procedure: An appropriate amount of CD3 epsilon homodimer protein was immobilized onto Sensor chip CM4 (GE Healthcare Japan Corp.) by the amine coupling method. Then, the antibody having an appropriate concentration was injected thereto as an analyte and allowed to interact with the CD3 epsilon homodimer protein on the sensor chip. Then, the sensor chip was regenerated by the injection of 10 mmol/L glycine-HCl (pH 1.5). The assay was conducted at 25 degrees C., and HBS-EP+(GE Healthcare Japan Corp.) was used as a running buffer. […] Each parameter was calculated using Biacore T200 Evaluation Software (GE Healthcare Japan Corp.).

T1 sequence (P07766 23-126): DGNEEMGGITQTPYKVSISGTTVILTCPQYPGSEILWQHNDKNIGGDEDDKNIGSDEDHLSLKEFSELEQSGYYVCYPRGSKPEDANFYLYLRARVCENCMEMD

B3: CE115HA000/GLS3000 N28Q (antibody, IgG1, name in Kabat numbering, V domains shown)
VH: QVQLVESGGGVVQPGRSLRLSCAASGFTFSNAWMHWVRQAPGKGLEWVAQIKAKSNNYATYYAESVKGRFTISRDDSKNSLYLQMNSLKTEDTAVYYCRYVHYGAYYGVDAWGQGTTVTVSS
VL: DIVMTQSPLSLPVTPGEPASISCRSSQSLVHSQRNTYLHWYQQKPGQAPRLLIYKVSNRFSGVPDRFSGSGSGTDFTLKISRVEAEDVGVYYCGQGTQVPYTFGQGTKLEIK
notes: one-arm IgG1
- KD ratio to GLS3000: 3.48

B4: CE115HA000/GLS3000 N28Y (antibody, IgG1, name in Kabat numbering, V domains shown)
VH: B3 VH
VL: B3 VL with Q33Y
notes: one-arm IgG1
- KD ratio to GLS3000: 3.89

B6: CE115HA000/GLS3000 L27bD (antibody, IgG1, name in Kabat numbering, V domains shown)
VH: B3 VH
VL: B3 VL with L29D, Q33N
notes: one-arm IgG1
- KD ratio to GLS3000: 25.1

B9: CE115HA000/GLS3000 N30G (antibody, IgG1, name in Kabat numbering, V domains shown)
VH: B3 VH
VL: B3 VL with Q33N, N35G
notes: one-arm IgG1
- KD ratio to GLS3000: 2.1

B14: CE115HA000/GLS3000 N28A (antibody, IgG1, name in Kabat numbering, V domains shown)
VH: B3 VH
VL: B3 VL with Q33A
notes: one-arm IgG1
- KD ratio to GLS3000: 4.18

B15: CE115HA000/GLS3000 L33F (antibody, IgG1, name in Kabat numbering, V domains shown)
VH: B3 VH
VL: B3 VL with Q33N, L38F
notes: one-arm IgG1
- KD ratio to GLS3000: 0.65

B16: CE115HA000/GLS3000 K50T (antibody, IgG1, name in Kabat numbering, V domains shown)
VH: B3 VH
VL: B3 VL with Q33N, K55T
notes: one-arm IgG1
- KD ratio to GLS3000: 25.1

B17: CE115HA000/GLS3000 N28M (antibody, IgG1, name in Kabat numbering, V domains shown)
VH: B3 VH
VL: B3 VL with Q33M
notes: one-arm IgG1
- KD ratio to GLS3000: 3.29

B18: CE115HA000/GLS3000 K50Y (antibody, IgG1, name in Kabat numbering, V domains shown)
VH: B3 VH
VL: B3 VL with Q33N, K55Y
notes: one-arm IgG1
- KD ratio to GLS3000: 195

B20: CE115HA000/GLS3000 L33A (antibody, IgG1, name in Kabat numbering, V domains shown)
VH: B3 VH
VL: B3 VL with Q33N, L38A
notes: one-arm IgG1
- KD ratio to GLS3000: 0.82

B21: CE115HA000/GLS3000 N28F (antibody, IgG1, name in Kabat numbering, V domains shown)
VH: B3 VH
VL: B3 VL with Q33F
notes: one-arm IgG1
- KD ratio to GLS3000: 2.59

B23: CE115HA000/GLS3000 N28G (antibody, IgG1, name in Kabat numbering, V domains shown)
VH: B3 VH
VL: B3 VL with Q33G
notes: one-arm IgG1
- KD ratio to GLS3000: 2.41

B24: CE115HA000/GLS3000 L27bY (antibody, IgG1, name in Kabat numbering, V domains shown)
VH: B3 VH
VL: B3 VL with L29Y, Q33N
notes: one-arm IgG1
- KD ratio to GLS3000: 22.2

B32: CE115HA000/GLS3000 K107E (antibody, IgG1, name in Kabat numbering, V domains shown)
VH: B3 VH
VL: B3 VL with Q33N, K112E
notes: one-arm IgG1
- KD ratio to GLS3000: 0.95

B37: CE115HA000/GLS3000 N28S (antibody, IgG1, name in Kabat numbering, V domains shown)
VH: B3 VH
VL: B3 VL with Q33S
notes: one-arm IgG1
- KD ratio to GLS3000: 4.3

B38: CE115HA000/GLS3000 L33E (antibody, IgG1, name in Kabat numbering, V domains shown)
VH: B3 VH
VL: B3 VL with Q33N, L38E
notes: one-arm IgG1
- KD ratio to GLS3000: 0.83

B40: CE115HA000/GLS3000 N28P (antibody, IgG1, name in Kabat numbering, V domains shown)
VH: B3 VH
VL: B3 VL with Q33P
notes: one-arm IgG1
- KD ratio to GLS3000: 4.18

B41: CE115HA000/GLS3000 L33M (antibody, IgG1, name in Kabat numbering, V domains shown)
VH: B3 VH
VL: B3 VL with Q33N, L38M
notes: one-arm IgG1
- KD ratio to GLS3000: 0.9

B42: CE115HA000/GLS3000 N28T (antibody, IgG1, name in Kabat numbering, V domains shown)
VH: B3 VH
VL: B3 VL with Q33T
notes: one-arm IgG1
- KD ratio to GLS3000: 2.67

B43: CE115HA000/GLS3000 N30E (antibody, IgG1, name in Kabat numbering, V domains shown)
VH: B3 VH
VL: B3 VL with Q33N, N35E
notes: one-arm IgG1
- KD ratio to GLS3000: 2.83

B46: CE115HA000/GLS3000 N28V (antibody, IgG1, name in Kabat numbering, V domains shown)
VH: B3 VH
VL: B3 VL with Q33V
notes: one-arm IgG1
- KD ratio to GLS3000: 3.73

Second part, the binder after the results:

- KD ratio to GLS3000: 27.7
B1: CE115HA000/GLS3000 K50P (antibody, IgG1, name in Kabat numbering, V domains shown)
VH: B3 VH
VL: B3 VL with Q33N, K55P
notes: one-arm IgG1

- KD ratio to GLS3000: 45.3
B2: CE115HA000/GLS3000 K50S (antibody, IgG1, name in Kabat numbering, V domains shown)
VH: B3 VH
VL: B3 VL with Q33N, K55S
notes: one-arm IgG1

- KD ratio to GLS3000: 0.9
B5: CE115HA000/GLS3000 L27bS (antibody, IgG1, name in Kabat numbering, V domains shown)
VH: B3 VH
VL: B3 VL with L29S, Q33N
notes: one-arm IgG1

- KD ratio to GLS3000: 23.6
B7: CE115HA000/GLS3000 L27bW (antibody, IgG1, name in Kabat numbering, V domains shown)
VH: B3 VH
VL: B3 VL with L29W, Q33N
notes: one-arm IgG1

- KD ratio to GLS3000: 5.47
B8: CE115HA000/GLS3000 N28E (antibody, IgG1, name in Kabat numbering, V domains shown)
VH: B3 VH
VL: B3 VL with Q33E
notes: one-arm IgG1

- KD ratio to GLS3000: 8.13
B10: CE115HA000/GLS3000 K50Q (antibody, IgG1, name in Kabat numbering, V domains shown)
VH: B3 VH
VL: B3 VL with Q33N, K55Q
notes: one-arm IgG1

- KD ratio to GLS3000: 0.85
B11: CE115HA000/GLS3000 K74T (antibody, IgG1, name in Kabat numbering, V domains shown)
VH: B3 VH
VL: B3 VL with Q33N, K79T
notes: one-arm IgG1

- KD ratio to GLS3000: 2.34
B12: CE115HA000/GLS3000 N28K (antibody, IgG1, name in Kabat numbering, V domains shown)
VH: B3 VH
VL: B3 VL with Q33K
notes: one-arm IgG1

- KD ratio to GLS3000: 3.82
B13: CE115HA000/GLS3000 N30D (antibody, IgG1, name in Kabat numbering, V domains shown)
VH: B3 VH
VL: B3 VL with Q33N, N35D
notes: one-arm IgG1

- KD ratio to GLS3000: 3
B19: CE115HA000/GLS3000 N28H (antibody, IgG1, name in Kabat numbering, V domains shown)
VH: B3 VH
VL: B3 VL with Q33H
notes: one-arm IgG1

- KD ratio to GLS3000: 2.67
B22: CE115HA000/GLS3000 L27bF (antibody, IgG1, name in Kabat numbering, V domains shown)
VH: B3 VH
VL: B3 VL with L29F, Q33N
notes: one-arm IgG1

- KD ratio to GLS3000: 1.11
B25: CE115HA000/GLS3000 L27bV (antibody, IgG1, name in Kabat numbering, V domains shown)
VH: B3 VH
VL: B3 VL with L29V, Q33N
notes: one-arm IgG1

- KD ratio to GLS3000: 1.16
B26: CE115HA000/GLS3000 N30A (antibody, IgG1, name in Kabat numbering, V domains shown)
VH: B3 VH
VL: B3 VL with Q33N, N35A
notes: one-arm IgG1

- KD ratio to GLS3000: 1.08
B27: CE115HA000/GLS3000 N30H (antibody, IgG1, name in Kabat numbering, V domains shown)
VH: B3 VH
VL: B3 VL with Q33N, N35H
notes: one-arm IgG1

- KD ratio to GLS3000: 2.81
B28: CE115HA000/GLS3000 N28I (antibody, IgG1, name in Kabat numbering, V domains shown)
VH: B3 VH
VL: B3 VL with Q33I
notes: one-arm IgG1

- KD ratio to GLS3000: 1.31
B29: CE115HA000/GLS3000 L27bM (antibody, IgG1, name in Kabat numbering, V domains shown)
VH: B3 VH
VL: B3 VL with L29M, Q33N
notes: one-arm IgG1

- KD ratio to GLS3000: 3.34
B30: CE115HA000/GLS3000 N28L (antibody, IgG1, name in Kabat numbering, V domains shown)
VH: B3 VH
VL: B3 VL with Q33L
notes: one-arm IgG1

- KD ratio to GLS3000: 3.17
B31: CE115HA000/GLS3000 N28W (antibody, IgG1, name in Kabat numbering, V domains shown)
VH: B3 VH
VL: B3 VL with Q33W
notes: one-arm IgG1

- KD ratio to GLS3000: 1.26
B33: CE115HA000/GLS3000 L33V (antibody, IgG1, name in Kabat numbering, V domains shown)
VH: B3 VH
VL: B3 VL with Q33N, L38V
notes: one-arm IgG1

- KD ratio to GLS3000: 32.9
B34: CE115HA000/GLS3000 L33P (antibody, IgG1, name in Kabat numbering, V domains shown)
VH: B3 VH
VL: B3 VL with Q33N, L38P
notes: one-arm IgG1

- KD ratio to GLS3000: 0.86
B35: CE115HA000/GLS3000 L33I (antibody, IgG1, name in Kabat numbering, V domains shown)
VH: B3 VH
VL: B3 VL with Q33N, L38I
notes: one-arm IgG1

- KD ratio to GLS3000: 1.83
B36: CE115HA000/GLS3000 K50R (antibody, IgG1, name in Kabat numbering, V domains shown)
VH: B3 VH
VL: B3 VL with Q33N, K55R
notes: one-arm IgG1

- KD ratio to GLS3000: 1.17
B39: CE115HA000/GLS3000 L27bI (antibody, IgG1, name in Kabat numbering, V domains shown)
VH: B3 VH
VL: B3 VL with L29I, Q33N
notes: one-arm IgG1

- KD ratio to GLS3000: 28.8
B44: CE115HA000/GLS3000 L27bE (antibody, IgG1, name in Kabat numbering, V domains shown)
VH: B3 VH
VL: B3 VL with L29E, Q33N
notes: one-arm IgG1

- KD ratio to GLS3000: 37.5
B45: CE115HA000/GLS3000 L33D (antibody, IgG1, name in Kabat numbering, V domains shown)
VH: B3 VH
VL: B3 VL with Q33N, L38D
notes: one-arm IgG1

- KD ratio to GLS3000: 0.96
B47: CE115HA000/GLS3000 L27bP (antibody, IgG1, name in Kabat numbering, V domains shown)
VH: B3 VH
VL: B3 VL with L29P, Q33N
notes: one-arm IgG1
